pIC50, pKd: −log10 of the molar value.
Key:
[1] = target: HLA-A*02:01; experiment: IEDB peptide-MHC binding, purified MHC/competitive/radioactivity; filed as Kd, often an IC50 or EC50 that approximates it; ≥ and ≤ were set here for values at or beyond the usual limits of such assays; conditions: source organism: Trypanosoma cruzi
[2] = target: HLA-A*02:01; experiment: IEDB peptide-MHC binding, purified MHC/competitive/radioactivity; ≥ and ≤ were set here for values at or beyond the usual limits of such assays; conditions: source organism: Trypanosoma cruzi

Sequence	pKd [1]	pIC50 [2]
LVQAFHSFRA	5.16	–
MALIGDSTV	4.76	–
RVFGLLLLGL	–	6.45
LLLGLWGTA	–	6.03
QLDHGVLLV	–	6.17
AACIVGCENV	≤ 4.55	–
KVVSLVILA	–	6.39
QVHSSLSVV	≤ 4.36	–
MTEQTDEAV	≤ 4.36	–
ALSLAAVLVV	–	6.49
VLVVMACLV	5.13	–
TLLYATVEV	–	7.17
STSRVPYDI	≤ 4.36	–
KTWADEYLCV	–	6.35
MACLVPAAT	≤ 4.57	–
SMNATLVQA	–	6.57
VTLPTGQCL	≤ 4.55	–
SLSVVRPMT	5.07	–
FLARLHAAA	–	7.32
LLTTSGVSAI	–	5.95
AIVFDHYDV	≤ 4.36	–
VVMACLVPAA	–	7.01

Sequence	pKd [1]	pIC50 [2]
LLVGYNDSA	≤ 4.55	–
IVQENNGAV	≤ 4.55	–
MTYTGGVMT	≤ 4.55	–
RALSLAAVL	–	5.41
RIILNGSLL	≤ 4.36	–
AIVTCGAETL	≤ 4.55	–
IILNGSLLT	–	5.36
SLVYVNGVVV	–	5.54
RLHLWLSDM	–	5.31
LLLLGLWGTA	–	6.05
STHCSGPSV	≤ 4.55	–
WMTYTGGVMT	≤ 4.55	–
FTSAVLLLVV	–	6.04
AASTLLYATV	–	5.53
LLTTSGVSA	≤ 4.55	–
LTFKGPGAWA	≤ 4.36	–
FLGGGGAGI	–	5.45
SVFRENLFL	–	7.23
LLLGLWGTAA	–	6.62
VLLLVVVMM	≤ 4.55	–
LLVGYNDSAA	≤ 4.55	–
